# Results from patent publication US20200040059A1.
# Where “and” joins values, the source holds several entries; their conditions need not be identical. Equal entries are not always repeated.
# Molecular target: human CD28, full-length, expressed on transfected Expi293 cells (human) (UniProt P10747)
# Assay: flow cytometry on CD28-expressing Expi293 cells
# Chain of wild-type CD155 IgV-Fc (P15151 24-139 limits assumed): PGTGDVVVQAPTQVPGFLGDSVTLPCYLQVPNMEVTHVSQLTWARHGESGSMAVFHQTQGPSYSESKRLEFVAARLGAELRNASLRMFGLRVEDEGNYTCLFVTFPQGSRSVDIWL
row,MFI [MFI],Substance
1,5,CD80 variant M38V/T41D/M43I/W50G/D76G/V83A/K89E/T120S/T130A ECD-Fc fusion (from UniProt P33681 35-242)
2,24,ICOSL variant N52S/S130G/Y152C ECD-Fc fusion (from UniProt O75144 19-256)

# Molecular target: CD96, expressed on transfected cells (UniProt P40200)
# Assay: flow cytometry on transfected cells
row,Substance,MFI at 100 nM
1,CD155 variant S52E IgV-Fc (from UniProt P15151 24-139) (Fc fusion),1800
2,CD155 variant S42W IgV-Fc (from UniProt P15151 24-139) (Fc fusion),2560
3,"CD155 variant T45Q, S52L, V57L, L104E IgV-Fc (from UniProt P15151 24-139) (Fc fusion)",1530
4,CD155 variant Q62F IgV-Fc (from UniProt P15151 24-139) (Fc fusion),2760
5,CD155 variant S52L IgV-Fc (from UniProt P15151 24-139) (Fc fusion),2040
6,CD155 variant L104Q IgV-Fc (from UniProt P15151 24-139) (Fc fusion),1540

# Next, values leading:
row,MFI at 100 nM,Substance
1,1890 and 1680 and 3270,wild-type CD155 IgV-Fc (from UniProt P15151 24-139) (Fc fusion)
2,2360,"CD155 variant S52R, Q62F, L104Q, G111R IgV-Fc (from UniProt P15151 24-139) (Fc fusion)"
3,1740,"CD155 variant S42N, S52Q, Q62F IgV-Fc (from UniProt P15151 24-139) (Fc fusion)"
4,1580,"CD155 variant T45Q, S52L, L104E, G111R IgV-Fc (from UniProt P15151 24-139) (Fc fusion)"
5,1830,CD155 variant Q62Y IgV-Fc (from UniProt P15151 24-139) (Fc fusion)
6,1820,CD155 variant S52Q IgV-Fc (from UniProt P15151 24-139) (Fc fusion)

# Molecular target: T1, human TIGIT, full length, expressed on transfected cells (human) (UniProt Q495A1)
# T1 sequence: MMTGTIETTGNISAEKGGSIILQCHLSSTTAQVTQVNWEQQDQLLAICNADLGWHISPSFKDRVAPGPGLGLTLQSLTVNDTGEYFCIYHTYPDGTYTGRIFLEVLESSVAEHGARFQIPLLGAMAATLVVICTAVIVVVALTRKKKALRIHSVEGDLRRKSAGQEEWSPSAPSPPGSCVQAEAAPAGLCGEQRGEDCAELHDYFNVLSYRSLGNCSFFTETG
# Assay: flow cytometry on transfected cells
row,Substance,MFI at 100 nM
1,CD155 variant S52E IgV-Fc (from UniProt P15151 24-139) (Fc fusion),2660
2,CD155 variant S42W IgV-Fc (from UniProt P15151 24-139) (Fc fusion),2430
3,"CD155 variant T45Q, S52L, V57L, L104E IgV-Fc (from UniProt P15151 24-139) (Fc fusion)",2860
4,CD155 variant Q62F IgV-Fc (from UniProt P15151 24-139) (Fc fusion),2210
5,CD155 variant S52L IgV-Fc (from UniProt P15151 24-139) (Fc fusion),2220
6,CD155 variant L104Q IgV-Fc (from UniProt P15151 24-139) (Fc fusion),10300

# Results, then the substance that gave them:
row,MFI at 100 nM,Substance
1,2180 and 4690,wild-type CD155 IgV-Fc (from UniProt P15151 24-139) (Fc fusion)
2,2970,"CD155 variant S52R, Q62F, L104Q, G111R IgV-Fc (from UniProt P15151 24-139) (Fc fusion)"
3,2400,"CD155 variant S42N, S52Q, Q62F IgV-Fc (from UniProt P15151 24-139) (Fc fusion)"
4,2290,"CD155 variant T45Q, S52L, L104E, G111R IgV-Fc (from UniProt P15151 24-139) (Fc fusion)"
5,2530,CD155 variant Q62Y IgV-Fc (from UniProt P15151 24-139) (Fc fusion)
6,2290,CD155 variant S52Q IgV-Fc (from UniProt P15151 24-139) (Fc fusion)

# Molecular target: T2, human CD226, full length, expressed on transfected cells (human) (UniProt Q15762)
# T2 sequence: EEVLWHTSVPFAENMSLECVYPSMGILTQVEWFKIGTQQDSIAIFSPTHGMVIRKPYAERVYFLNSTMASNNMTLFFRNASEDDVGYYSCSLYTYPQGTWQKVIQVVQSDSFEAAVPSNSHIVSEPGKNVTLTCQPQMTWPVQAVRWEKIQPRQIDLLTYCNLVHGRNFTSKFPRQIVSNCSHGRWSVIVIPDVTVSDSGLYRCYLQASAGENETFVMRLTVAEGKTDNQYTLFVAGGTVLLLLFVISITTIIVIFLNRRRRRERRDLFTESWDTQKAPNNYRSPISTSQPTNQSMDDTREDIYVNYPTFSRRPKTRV
# Assay: flow cytometry on transfected cells
row,Substance,MFI at 100 nM
1,CD155 variant S52E IgV-Fc (from UniProt P15151 24-139) (Fc fusion),2600
2,CD155 variant S42W IgV-Fc (from UniProt P15151 24-139) (Fc fusion),2130
3,"CD155 variant T45Q, S52L, V57L, L104E IgV-Fc (from UniProt P15151 24-139) (Fc fusion)",5940
4,CD155 variant Q62F IgV-Fc (from UniProt P15151 24-139) (Fc fusion),2570
5,CD155 variant S52L IgV-Fc (from UniProt P15151 24-139) (Fc fusion),2680
6,CD155 variant L104Q IgV-Fc (from UniProt P15151 24-139) (Fc fusion),3790

# Continued, values first:
row,MFI at 100 nM,Substance
1,2320 and 2370 and 4690,wild-type CD155 IgV-Fc (from UniProt P15151 24-139) (Fc fusion)
2,3170,"CD155 variant S52R, Q62F, L104Q, G111R IgV-Fc (from UniProt P15151 24-139) (Fc fusion)"
3,2150,"CD155 variant S42N, S52Q, Q62F IgV-Fc (from UniProt P15151 24-139) (Fc fusion)"
4,2390,"CD155 variant T45Q, S52L, L104E, G111R IgV-Fc (from UniProt P15151 24-139) (Fc fusion)"
5,2620,CD155 variant Q62Y IgV-Fc (from UniProt P15151 24-139) (Fc fusion)
6,2020,CD155 variant S52Q IgV-Fc (from UniProt P15151 24-139) (Fc fusion)

# Molecular target: CD112R, expressed on transfected cells (human) (UniProt Q6DKI7)
# Assay: flow cytometry on transfected cells
# Chain of CD112R, expressed on transfected cells (human) (Q6DKI7 whole entry): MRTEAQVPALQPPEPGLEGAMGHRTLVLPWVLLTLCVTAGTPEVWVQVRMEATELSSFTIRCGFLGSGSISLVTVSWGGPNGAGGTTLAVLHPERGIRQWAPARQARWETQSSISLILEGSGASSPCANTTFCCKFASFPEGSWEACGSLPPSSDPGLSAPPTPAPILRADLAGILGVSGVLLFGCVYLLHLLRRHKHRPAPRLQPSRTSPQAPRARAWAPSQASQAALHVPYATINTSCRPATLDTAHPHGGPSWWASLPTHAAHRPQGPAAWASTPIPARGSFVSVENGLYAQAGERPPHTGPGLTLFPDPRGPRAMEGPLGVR
row,Substance,MFI at 100 nM
1,CD155 variant S52E IgV-Fc (from UniProt P15151 24-139) (Fc fusion),1900
2,CD155 variant S42W IgV-Fc (from UniProt P15151 24-139) (Fc fusion),2330
3,"CD155 variant T45Q, S52L, V57L, L104E IgV-Fc (from UniProt P15151 24-139) (Fc fusion)",1500
4,CD155 variant Q62F IgV-Fc (from UniProt P15151 24-139) (Fc fusion),2710
5,CD155 variant S52L IgV-Fc (from UniProt P15151 24-139) (Fc fusion),2040
6,CD155 variant L104Q IgV-Fc (from UniProt P15151 24-139) (Fc fusion),2120

# Second part, the substance after the results:
row,MFI at 100 nM,Substance
1,2170 and 1740 and 2940,wild-type CD155 IgV-Fc (from UniProt P15151 24-139) (Fc fusion)
2,1730,"CD155 variant S52R, Q62F, L104Q, G111R IgV-Fc (from UniProt P15151 24-139) (Fc fusion)"
3,1860,"CD155 variant S42N, S52Q, Q62F IgV-Fc (from UniProt P15151 24-139) (Fc fusion)"
4,1740,"CD155 variant T45Q, S52L, L104E, G111R IgV-Fc (from UniProt P15151 24-139) (Fc fusion)"
5,1920,CD155 variant Q62Y IgV-Fc (from UniProt P15151 24-139) (Fc fusion)
6,1790,CD155 variant S52Q IgV-Fc (from UniProt P15151 24-139) (Fc fusion)

# Molecular target: PD-L1 (human) (UniProt Q9NZQ7)
# Assay: flow cytometry on HEK293 cells transfected with PD-L1
# Chain of PD-L1 (human) (Q9NZQ7 19-290 limits assumed): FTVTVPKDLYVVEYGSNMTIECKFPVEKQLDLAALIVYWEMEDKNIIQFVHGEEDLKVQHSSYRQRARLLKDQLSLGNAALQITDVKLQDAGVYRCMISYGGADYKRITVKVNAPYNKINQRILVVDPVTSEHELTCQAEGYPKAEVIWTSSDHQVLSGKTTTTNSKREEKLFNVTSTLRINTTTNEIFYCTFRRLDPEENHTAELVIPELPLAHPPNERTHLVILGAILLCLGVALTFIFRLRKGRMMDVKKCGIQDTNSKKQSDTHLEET
row,MFI at 22.2 nM [MFI],Substance
1,6170,CD80 IgV-Fc L70P/F92S (from UniProt P33681 35-141) (Fc fusion)
2,150000,CD80 IgV-Fc E35D/M47I (from UniProt P33681 35-141) (Fc fusion)
3,6140,CD80 IgV-Fc V22L/M38V/M47T/A71D/L85M (from UniProt P33681 35-141) (Fc fusion)

# Molecular target: CTLA4 (human) (UniProt P16410)
# Assay: flow cytometry on HEK293 cells transfected with CTLA4
# Chain of CTLA4 (human) (P16410 36-223 limits assumed): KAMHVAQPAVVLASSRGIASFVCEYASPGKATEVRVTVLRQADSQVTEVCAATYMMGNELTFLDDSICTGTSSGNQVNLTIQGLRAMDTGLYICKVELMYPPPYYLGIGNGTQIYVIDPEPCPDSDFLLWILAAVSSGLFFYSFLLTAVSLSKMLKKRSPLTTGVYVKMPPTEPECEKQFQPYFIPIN
row,MFI at 66.6 nM [MFI],Substance
1,4040,CD80 IgV-Fc L70P/F92S (from UniProt P33681 35-141) (Fc fusion)
2,354000,CD80 IgV-Fc E35D/M47I (from UniProt P33681 35-141) (Fc fusion)
3,175000,CD80 IgV-Fc V22L/M38V/M47T/A71D/L85M (from UniProt P33681 35-141) (Fc fusion)
